Data as given in PMC5175334.

B1: full-length wild-type TRBP (TRBP-WT), lentivirally expressed in HDLECs [human] / S6K2 (S6 kinase 2), endogenous [human (endogenous in HDLEC)] (parent)
chain 1: MSEEEQGSGTTTGCGLPSIEQMLAANPGKTPISLLQEYGTRIGKTPVYDLLKAEGQAHQPNFTFRVTVGDTSCTGQGPSKKAAKHKAAEVALKHLKGGSMLEPALEDSSSFSPLDSSLPEDIPVFTAAAAATPVPSVVLTRSPPMELQPPVSPQQSECNPVGALQELVVQKGWRLPEYTVTQESGPAHRKEFTMTCRVERFIEIGSGTSKKLAKRNAAAKMLLRVHTVPLDARDGNEVEPDDDHFSIGVGSRLDGLRNRGPGCTWDSLRNSVGEKILSLRSCSLGSLGALGPACCRVLSELSEEQAFHVSYLDIEELSLSGLCQCLVELSTQPATVCHGSATTREAARGEAARRALQYLKIMAGSK
chain 2: MAAVFDLDLETEEGSEGEGEPELSPADACPLAELRAAGLEPVGHYEEVELTETSVNVGPERIGPHCFELLRVLGKGGYGKVFQVRKVQGTNLGKIYAMKVLRKAKIVRNAKDTAHTRAERNILESVKHPFIVELAYAFQTGGKLYLILECLSGGELFTHLEREGIFLEDTACFYLAEITLALGHLHSQGIIYRDLKPENIMLSSQGHIKLTDFGLCKESIHEGAVTHTFCGTIEYMAPEILVRSGHNRAVDWWSLGALMYDMLTGSPPFTAENRKKTMDKIIRGKLALPPYLTPDARDLVKKFLKRNPSQRIGGGPGDAADVQRHPFFRHMNWDDLLAWRVDPPFRPCLQSEEDVSQFDTRFTRQTPVDSPDDTALSESANQAFLGFTYVAPSVLDSIKEGFSFQPKLRSPRRLNSSPRAPVSPLKFSPFEGFRPSPSLPEPTELPLPPLLPPPPPSTTAPLPIRPPSGTKKSKRGRGRPGR

Variants of: B1
Test: proximity ligation assay (PLA) in cells
Settings: with S6K2 (S6 kinase 2), HDLECs transduced with TRBP-DD lentivirus (200 ml/80 000 cells), endogenous TRBP also present, parent: 31, read off a plot
With chain 1 S283D S286D the response (PLA events per HDLEC) was 7.

Variants of: B1
Test: co-immunoprecipitation, band quantification
Settings: with S6K2, lentivirally over-expressed in HEK293 cells; HEK293 cells over-expressing S6K2 and TRBP-WT or TRBP-DD; parent: 1; read off a plot
chain 1 S283D S286D was tested, and the ratio to parent was 0.16.

Variants of: B1
Test: proximity ligation assay (PLA) in cells
Settings: with S6K2 (S6 kinase 2), HDLECs transduced with TRBP-AA lentivirus (600 ml/80 000 cells), endogenous TRBP also present, parent: 31, read off a plot
Variant chain 1 S283A S286A has a response (PLA events per HDLEC) of 20.
